Legend:
arlR-dependent protein A = experiment: Protein A expression by Western blotting on stimulation of GraS; assay type: cell-based, Staphylococcus aureus; details: 50 μg of colistin
Protocol: Overnight cultures of the strains were diluted in TSB-gluc to an OD650nm=0.1 and 50 μl of the diluted cultures were mixed with 1950 μl of chemically defined medium HHWm (Hussain-Hastings-White modified medium) (Toledo-Arana et al., 2005) to inoculate sterile 24-well polystyrene microtitre plates (Costar). Plates were incubated at 37° C. for 24 hours, trying to mimic biofilm forming conditions. […] of bacterial cultures were centrifuged and pellets were resuspended in 60 μl PBS. Then, 2 μl of Lysostaphin 1 mg/ml (Sigma) and 3 μl of DNase I 1 mg/ml (Sigma) were added. After 2 h of incubation at 37° C. cell lysates were centrifuged and supernatants were collected. Protein concentration was determined with the Bio-Rad protein assay (Bio-Rad). Samples were adjusted to 3-5 μg of total protein and one volume of Laemmli buffer was added. Total protein extracts were denatured by boiling at 100° C. for 5 min. Proteins were separated on 10% SDS-polyacrylamide gels and stained with 0.25% Coomassie brilliant blue R250 (Sigma) as loading controls. For Western blotting, proteins were transferred onto Hybond-ECL nitrocellulose membranes (Amersham Biosciences) by semi-dry electroblotting. […] Protein A was detected with the SuperSignal West Pico Chemiluminescent Substrate (Thermo Scientific). • Construction of the Bap-Snap-ClfA Quimeric Protein and Expression in S. aureus ΔXVI

[1] = test system: ArlR D52A (non-phosphorylatable ArlR allele)
[2] = test system: ArlR response regulator of the arlRS two-component system of S. aureus MW2

Substance | Expression of protein A (arlR-dependent protein A; arlRS graSR double mutant) | Expression of protein A (arlR-dependent protein A; wild type and single arlRS mutant) | Protein A expression by Western blotting in ΔXV strain [1] | Protein A expression by Western blotting with 50 µg/ml colistin [1] | Protein A expression by Western blotting in ΔXV strain complemented with arlR plus one HK [2]
colistin | but not in arlRS graSR double mutant | activation of the expression of protein A was observed | – | – | –
GraS histidine kinase of the graXRS two-component system of S. aureus MW2 | – | – | substitution of ArlR wild type by the non-phosphorylatable ArlRD52A allele suppresses the cross-talk | activation of protein A expression was absent when the ArlR phosphate accepting aspartate was mutated | In addition to ArlS itself, GraS is able to restore protein A expression in ΔXV strain
